Measured values from paper PMC9122598, “NASP maintains histone H3–H4 homeostasis through two distinct H3 binding modes” (Nucleic Acids Research, 2022).

Tested on: H3–H4 tetramer
Experiment: GST pulldown of H3–H4 with frog GST-NASP.Sc
Assay type: binding
Protocol: As mentioned above the GST-tagged sNASPc, frog NASP.Sc and their mutants could not be separated into dimer and monomer peaks during the purification steps, the conformations of these proteins used for pulldowns were mixtures of dimer and monomer. […] All the samples were analyzed with SDS-PAGE.

B1: frog NASP.S: frog homologue of sNASP (N1/N2); tested as GST-NASP.Sc dimer/monomer mixture (protein)
chain: SAEKADGIDIDTEAKRLMGAGQKHLVMKDVRSAVNLFQEASSLLAKQYGETADECAEAFYSYGMSLLELARLENEGTEEKETEEEDVGNLQLAWEMLDLCKTIFKRQQSKEAQLKAAQAHQKLGEVCIESENYSQAVEDFLACLNIQKEHLEEHDRLLAETHYHLGLAYQYSSKHEEAISHFTQSIGVIEKRMDVLTKQLEASVGELVDEVKKEMDELKDLLPDIKEKIEDSKEAQKNATVTEKALKETLVGGSS
modifications: left off: GST, N-terminal, cleaved
notes: frog homologue of sNASP (N1/N2); tested as GST-NASP.Sc dimer/monomer mixture
Retention of H3 vs H4 in pulldown (in the absence of H3 αN-binding): retained more H3 than H4
Pulldown binding to H3–H4 (incubation 0.3 M NaCl, wash […] NaCl): H3 αN- and α3-binding sites are conserved
